Source: the supplement of paper PMC9170038

Tested on: MS2 coat protein
Test: apparent KD of MS2 coat protein; higher = weaker reporter binding
Settings: Eterna round: R107
Summary of the method: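 The buffer was 100 mM Tris-HCl pH 7.5 with 80 mM KCl and 4 mM MgCl2, used without or with constant ligand. In it, RNA switches transcribed on-chip from Illumina sequencing clusters were titrated with SNAP-549-labelled MS2 coat protein in twofold steps from 0.7 or 1.5 nM to 3 µM. Apparent KD for each design is the median of its normalised cluster binding-curve fits.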

[1] = input ligand: theophylline 20 uM
[2] = input ligand: tryptophan 2.4 mM
[3] = input ligand: theophylline 2 mM

AACAGUAUUAUAGAUACCAGCAGGUCAUAAGACAUGAGGAUCACCCAUGUGAAUGAGGUAUGCCCUUGGCAGCUAUGAGGUCCUC [theeternabot_sameState_MS2_Theo_B_18]
apparent KD of MS2 coat protein (input ligand: arginine 13.2 mM): 113 nM | apparent KD of MS2 coat protein [1]: 185 nM | apparent KD of MS2 coat protein [2]: 126 nM

AAUCAUGAAAACAUGACAUGAGGAUCACUCCGAGGACCGGUACGGCCGCCACUCGCGAGGAGGCGGACAUGAGGAUCACCCAUGU [#02 Tryptophan A Same State]
apparent KD of MS2 coat protein (input ligand: arginine 13.2 mM): 49.2 nM | apparent KD of MS2 coat protein [1]: 265 nM | apparent KD of MS2 coat protein [3]: 421 nM

GCACCAGGUACGGAUACCAGCUGCCCGAGAUACAUGAGGAUCACCCAUGUGACCUGGUUUAGCCCUUGGCAGCUGUACCUGGUGC [#14 Same State - Theophylline B]
apparent KD of MS2 coat protein (input ligand: arginine 13.2 mM): 13 nM | apparent KD of MS2 coat protein [1]: 13.8 nM | apparent KD of MS2 coat protein [2]: 14.3 nM

CUCGGGUUAUCAGAUACCAGACUAAAAUUUACAUGAGGAUCACCCAUGUAAUGGGUGAUAGUCCCUUGGCAGCUGUUAUGUUUAA [JR_ExcTheophyB_Sub001]
apparent KD of MS2 coat protein (input ligand: arginine 13.2 mM): 65 nM | apparent KD of MS2 coat protein [1]: 85.4 nM | apparent KD of MS2 coat protein [2]: 70.8 nM

GGACUAACCUGAAGGAGCGACGCGCAGAAACUGCAAAUUCCUCCACACGAGGAUCACCCGUGUCAGGUAGGUCGCAGGUUAGUCG [ArgBX 28]
apparent KD of MS2 coat protein (input ligand: arginine 13.2 mM): 13.6 nM | apparent KD of MS2 coat protein (input ligand: none): 14.6 nM | apparent KD of MS2 coat protein [1]: 18.9 nM | apparent KD of MS2 coat protein [3]: 18.2 nM | apparent KD of MS2 coat protein [2]: 16.9 nM

CUAAAUAUAUCGGCCGCCACUUACUCAUGAGGUAACAACAUGAGGAUCACCCAUGUUUGAGGAUCAAGGACCGGGAUAUAUUUAG [AstrosSSTryB#16]
apparent KD of MS2 coat protein (input ligand: arginine 13.2 mM): 26.1 nM | apparent KD of MS2 coat protein [1]: 37.2 nM | apparent KD of MS2 coat protein [3]: 28.9 nM

UCAGGAAGAGCGGCCGCCACUGUUUGGCAUGCGGAUGAAGGAACAUGAGGAUCACCCAUGUAGAUUAGGACCGGGCUUGCGGAGA [szeemullin]
apparent KD of MS2 coat protein (input ligand: arginine 13.2 mM): 20.9 nM | apparent KD of MS2 coat protein (input ligand: none): 13.7 nM | apparent KD of MS2 coat protein [1]: 24.2 nM | apparent KD of MS2 coat protein [3]: 19.4 nM | apparent KD of MS2 coat protein [2]: 12.6 nM

UAUAUUGUGAUGGAUACCAGCAGAGAAAACGUUUAUCCUAACAUGAGGAUCACCCAUGUAUGCCCUUGGCAGCUGUUGUGAUAUA [8.N]
apparent KD of MS2 coat protein (input ligand: arginine 13.2 mM): 47.6 nM | apparent KD of MS2 coat protein [1]: 73.9 nM | apparent KD of MS2 coat protein [2]: 61.1 nM

AGUAGACACGCGGCCGCCACUUGAGGAUCACCCAAGUGGUGUGUACUUGAAACAAGUGCACAAUCAAGGACCGGGCGUGUCUACA [Omei Tryp B SS D v4]
apparent KD of MS2 coat protein (input ligand: arginine 13.2 mM): 5.02 nM | apparent KD of MS2 coat protein (input ligand: none): 7.02 nM | apparent KD of MS2 coat protein [1]: 8.77 nM | apparent KD of MS2 coat protein [3]: 7.77 nM | apparent KD of MS2 coat protein [2]: 13 nM

CAUAUAUAUGGAAGGAGCGCGAUUACAUAACAUGAGGAUCACCCAUGUAAGAAAUUAUUCAUGCAGGUAGGUCGCCAUAUAUAUG [Same State Arginine B GF6]
apparent KD of MS2 coat protein (input ligand: arginine 13.2 mM): 29.3 nM | apparent KD of MS2 coat protein (input ligand: none): 24 nM | apparent KD of MS2 coat protein [1]: 35.3 nM | apparent KD of MS2 coat protein [3]: 27 nM | apparent KD of MS2 coat protein [2]: 26.6 nM

AACAUGAGGAUCACCCAUGUCCCAUGUGAACGAGGACCGGUACGGCCGCCACUCGAAUGAGGCGGCACAUGAGGAUCACCCACAU [whbob_SS_trypto A_2s11]
apparent KD of MS2 coat protein (input ligand: arginine 13.2 mM): 95.7 nM | apparent KD of MS2 coat protein [1]: 233 nM | apparent KD of MS2 coat protein [3]: 237 nM

GCGAUGGAGCGAAGGAGCGGCUGUGACUACAUGAGGAUCACCCAUGUACGAUUGUAAGGUAGCCAGGUAGGUCGCGCUCCAUCGC [SSAB NP+V+V2 #18]
apparent KD of MS2 coat protein (input ligand: arginine 13.2 mM): 14 nM | apparent KD of MS2 coat protein (input ligand: none): 16.3 nM | apparent KD of MS2 coat protein [1]: 22.5 nM | apparent KD of MS2 coat protein [3]: 24.6 nM | apparent KD of MS2 coat protein [2]: 15.8 nM

UAGUACAUGAGGAUCACCCAUGUCGGAGGUCGAGGACCGGUACGGCCGCCACUCGGUCAUGCCCUACGAUACGACAGGAAUCUGU [theeternabot_sameState_MS2_Trp_A_28]
apparent KD of MS2 coat protein (input ligand: arginine 13.2 mM): 21.8 nM | apparent KD of MS2 coat protein [1]: 36.5 nM | apparent KD of MS2 coat protein [3]: 28.9 nM

AGUAGACACGCGGCCGCCACUUGAGGAUCACCCAGGUGGUGUGUACUUGAAACAAGUGCACAAUCAAGGACCGGGCGUGUCUACA [Omei Tryp B SS D v1]
apparent KD of MS2 coat protein (input ligand: arginine 13.2 mM): 12.6 nM | apparent KD of MS2 coat protein (input ligand: none): 13.5 nM | apparent KD of MS2 coat protein [1]: 17.4 nM | apparent KD of MS2 coat protein [3]: 15.1 nM | apparent KD of MS2 coat protein [2]: 83.7 nM

ACAUGAGGAUCACCCAUGUACAUGAGGGAAGGAGCGGUACAUGUGCCAGGUAGGUCGCCCAACAGCAUCAGCCAUGUACAACGGA [xxbmullin]
apparent KD of MS2 coat protein (input ligand: arginine 13.2 mM): 29 nM | apparent KD of MS2 coat protein (input ligand: none): 56.8 nM | apparent KD of MS2 coat protein [1]: 87.4 nM | apparent KD of MS2 coat protein [3]: 69.5 nM | apparent KD of MS2 coat protein [2]: 52.3 nM
